The record followed here is paper PMC5454392, “Selective BET bromodomain inhibition as an antifungal therapeutic strategy” (Nature Communications, 2017).

Where two headings read alike, the source gives them in different places.

For one test, the target named is T1, CaBdf1 BD2 (Candida albicans, UniProt Q5A4W8).
T1 construct: made in house; host or cells: E. coli BL21(DE3)
T1 sequence (Q5A4W8 whole entry, looked up): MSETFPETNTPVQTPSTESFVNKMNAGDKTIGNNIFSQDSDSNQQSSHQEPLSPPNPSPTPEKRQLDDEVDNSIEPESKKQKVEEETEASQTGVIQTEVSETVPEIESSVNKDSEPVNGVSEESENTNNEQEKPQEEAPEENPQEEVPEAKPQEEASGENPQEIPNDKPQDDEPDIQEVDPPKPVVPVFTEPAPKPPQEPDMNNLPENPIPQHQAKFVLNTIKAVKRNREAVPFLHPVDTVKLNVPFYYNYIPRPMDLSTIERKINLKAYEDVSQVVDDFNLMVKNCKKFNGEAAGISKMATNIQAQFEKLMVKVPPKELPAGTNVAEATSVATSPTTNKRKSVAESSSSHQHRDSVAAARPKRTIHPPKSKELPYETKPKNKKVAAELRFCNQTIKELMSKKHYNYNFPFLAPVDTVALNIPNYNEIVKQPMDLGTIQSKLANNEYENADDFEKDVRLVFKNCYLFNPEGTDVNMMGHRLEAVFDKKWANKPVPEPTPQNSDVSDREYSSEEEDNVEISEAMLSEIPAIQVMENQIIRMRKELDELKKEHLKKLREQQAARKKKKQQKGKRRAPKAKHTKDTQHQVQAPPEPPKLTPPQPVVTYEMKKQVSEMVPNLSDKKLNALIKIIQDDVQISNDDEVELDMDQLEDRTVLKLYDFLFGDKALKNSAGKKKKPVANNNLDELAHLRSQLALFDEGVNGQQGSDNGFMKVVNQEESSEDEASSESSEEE
The class given is binding. To be noted: wild-type BD2; for CaBdf1 BD2 Normalized (0 to 100%) WT: normalized array signal; for CaBdf1 BD2 Raw data WT: peptide array signal. The method, then:
(§1) In short, arrays were blocked and incubated with 1 μM of purified CaBdf1 BD1 or BD2. Arrays were incubated with recombinant BDs for 2 h at 4 °C in binding buffer (Tris-HCl 50 mM pH 7.4, NP-40 0.1%, NaCl 150 mM, glycerol 10%). […] Assays were performed in duplicate.

Another test has as its target T2, CaBdf1 BD1 (Candida albicans, UniProt Q5A4W8).
T2 construct: made in house; host or cells: E. coli BL21(DE3)
T2 sequence (Q5A4W8 whole entry, looked up): T1 sequence (Q5A4W8 whole entry, looked up)
The class given is binding. To be noted: wild-type BD1; for CaBdf1 BD1 Normalized (0 to 100%) WT: normalized array signal; for CaBdf1 BD1 Raw data WT: peptide array signal. The method, then:
as §1

The next test addresses T3, CaBdf1 BD2 Y425F (Candida albicans, UniProt Q5A4W8, Y425F).
T3 construct: made in house; host or cells: E. coli BL21(DE3), inferred from the wild-type GST construct
The experiment in a line: Histone peptide microarray binding, YF mutant. On the set-up: species or system C. albicans. To be noted: YF mutant BD2; for CaBdf1 BD2 Normalized (0 to 100%) YF mutant: normalized array signal; for CaBdf1 BD2 Raw data YF mutant: peptide array signal. How it is done:
(§2) In short, arrays were blocked and incubated with 1 μM of purified CaBdf1 BD1 or BD2. Arrays were incubated with recombinant BDs for 2 h at 4 °C in binding buffer (Tris-HCl 50 mM pH 7.4, NP-40 0.1%, NaCl 150 mM, glycerol 10%). […] Assays were performed in duplicate. Images were acquired on a Bio-Rad ChemiDoc XRS Imaging machine and data were quantified using the array analyser software provided by Active Motif.

Another test concerns the target T4, CaBdf1 BD1 Y248F (Candida albicans, UniProt Q5A4W8, Y248F).
T4 construct: made in house; host or cells: E. coli BL21(DE3), inferred from the wild-type GST construct
The experiment in a line: Histone peptide microarray binding, YF mutant. On the set-up: species or system C. albicans. The conditions noted are these: YF mutant BD1; for CaBdf1 BD1 Normalized (0 to 100%) YF mutant: normalized array signal; for CaBdf1 BD1 Raw data YF mutant: peptide array signal. How it is done:
as §2
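Throughout, for CaBdf1 BD1 Normalized (0 to 100%) WT: normalized to spotted c-myc peptide positive control signal.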
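Throughout, for CaBdf1 BD1 Normalized (0 to 100%) YF mutant: normalized to spotted c-myc peptide positive control signal.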
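Throughout, for CaBdf1 BD2 Normalized (0 to 100%) WT: normalized to spotted c-myc peptide positive control signal.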
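Throughout, for CaBdf1 BD2 Normalized (0 to 100%) YF mutant: normalized to spotted c-myc peptide positive control signal.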

T3 sequence (Q5A4W8 361-501 Y425F): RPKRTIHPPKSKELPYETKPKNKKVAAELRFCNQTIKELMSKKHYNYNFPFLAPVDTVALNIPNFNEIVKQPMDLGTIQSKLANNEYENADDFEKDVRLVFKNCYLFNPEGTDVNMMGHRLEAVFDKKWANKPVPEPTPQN
T4 sequence (Q5A4W8 193-327 Y248F): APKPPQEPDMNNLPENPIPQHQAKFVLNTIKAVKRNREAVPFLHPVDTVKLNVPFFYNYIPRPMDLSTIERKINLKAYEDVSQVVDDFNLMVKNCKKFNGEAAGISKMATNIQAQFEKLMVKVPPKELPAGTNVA

For “A Rme2a T Kme2 Q T A R Kme2 S T G G K A P R K Q”, the “CaBdf1 BD2 Normalized (0 to 100%) WT” value with CaBdf1 BD2 was 0.222%. Besides, the entries for the “CaBdf1 BD2 Raw data WT” value with CaBdf1 BD2 (first of two raw-data columns) and with CaBdf1 BD2 were 0.0151 and 0.0006863, respectively. For the same sequence, the “CaBdf1 BD1 Normalized (0 to 100%) WT” value in the test with CaBdf1 BD1 came to 0.399%. In addition, the “CaBdf1 BD1 Raw data WT” value in the test with CaBdf1 BD1 (first of two raw-data columns) and with CaBdf1 BD1 was 0.00481 throughout. Moreover, in the test with CaBdf1 BD2 Y425F, the “CaBdf1 BD2 Normalized (0 to 100%) YF mutant” value is 0.0977%. In addition, the entries for the “CaBdf1 BD2 Raw data YF mutant” value in the test with CaBdf1 BD2 Y425F (first of two raw-data columns) and with CaBdf1 BD2 Y425F were 0.0009709 and 0.002427, respectively. In the test with CaBdf1 BD1 Y248F, the “CaBdf1 BD1 Normalized (0 to 100%) YF mutant” value is given as 0.727%. In addition, the “CaBdf1 BD1 Raw data YF mutant” value was determined as 0.007202 in the test with CaBdf1 BD1 Y248F (first of two raw-data columns) and 0.002401 in the test with CaBdf1 BD1 Y248F.

As for “A Rme2a T Kme2 Q T A Rme2a K S T G G K A P R K Q”, in the test with CaBdf1 BD2, the “CaBdf1 BD2 Normalized (0 to 100%) WT” value came to 0.444% and the “CaBdf1 BD2 Raw data WT” value came out at 0.01098. In the test with CaBdf1 BD1, the “CaBdf1 BD1 Normalized (0 to 100%) WT” value worked out at 0.508% and the “CaBdf1 BD1 Raw data WT” value is given as 0.003741. Also, in the test with CaBdf1 BD1 (first of two raw-data columns), the “CaBdf1 BD1 Raw data WT” value was 0.007483. Moreover, in the test with CaBdf1 BD2 Y425F, the “CaBdf1 BD2 Normalized (0 to 100%) YF mutant” value was 0.293% and the “CaBdf1 BD2 Raw data YF mutant” value was determined as 0.002427. Moreover, in the test with CaBdf1 BD1 Y248F, the “CaBdf1 BD1 Normalized (0 to 100%) YF mutant” value came out at 0.727% and the “CaBdf1 BD1 Raw data YF mutant” value is 0.003086. In addition, in the test with CaBdf1 BD1 Y248F (first of two raw-data columns), the “CaBdf1 BD1 Raw data YF mutant” value came to 0.007202.

In the case of “A Rme2a T Kme3 Q T A R Kac S T G G K A P R K Q”, the “CaBdf1 BD2 Normalized (0 to 100%) WT” value with CaBdf1 BD2 is reported as 0.518%. The “CaBdf1 BD2 Raw data WT” value with CaBdf1 BD2 (first of two raw-data columns) was determined as 0.006177; in the test with CaBdf1 BD2 it was 0.0151. In addition, the “CaBdf1 BD1 Normalized (0 to 100%) WT” value in the test with CaBdf1 BD1 worked out at 3.44%. Besides, the entries for the “CaBdf1 BD1 Raw data WT” value in the test with CaBdf1 BD1 (first of two raw-data columns) and with CaBdf1 BD1 were 0.01924 and 0.03528, respectively. In addition, the “CaBdf1 BD2 Normalized (0 to 100%) YF mutant” value with CaBdf1 BD2 Y425F turned out to be 0.244%. Further, the “CaBdf1 BD2 Raw data YF mutant” value with CaBdf1 BD2 Y425F (first of two raw-data columns) and with CaBdf1 BD2 Y425F was 0.002427 in each case. The “CaBdf1 BD1 Normalized (0 to 100%) YF mutant” value with CaBdf1 BD1 Y248F worked out at 0.554%. Further, the “CaBdf1 BD1 Raw data YF mutant” value with CaBdf1 BD1 Y248F (first of two raw-data columns) is 0.005487; in the test with CaBdf1 BD1 Y248F, 0.004801.

Turning to “A Rme2a T Kme3 Q T A R Kme2 S T G G K A P R K Q”, the “CaBdf1 BD2 Normalized (0 to 100%) WT” value with CaBdf1 BD2 turned out to be 0.296%. Moreover, the “CaBdf1 BD2 Raw data WT” value was found to be 0.01579 in the test with CaBdf1 BD2 (first of two raw-data columns) and 0.001373 in the test with CaBdf1 BD2. The “CaBdf1 BD1 Normalized (0 to 100%) WT” value in the test with CaBdf1 BD1 was 0.145%. Also, the “CaBdf1 BD1 Raw data WT” value with CaBdf1 BD1 (first of two raw-data columns) was 0.002672; with CaBdf1 BD1, 0.003207. Moreover, the “CaBdf1 BD2 Normalized (0 to 100%) YF mutant” value with CaBdf1 BD2 Y425F came to 0.244%. Besides, the “CaBdf1 BD2 Raw data YF mutant” value in the test with CaBdf1 BD2 Y425F (first of two raw-data columns) came out at 0.002427; with CaBdf1 BD2 Y425F it was 0.003398. Besides, the “CaBdf1 BD1 Normalized (0 to 100%) YF mutant” value in the test with CaBdf1 BD1 Y248F is on record as 0.554%. In addition, the entries for the “CaBdf1 BD1 Raw data YF mutant” value with CaBdf1 BD1 Y248F (first of two raw-data columns) and in the test with CaBdf1 BD1 Y248F were 0.005487 and 0.006859, respectively.

For “A Rme2a T Kme3 Q T A Rme2a K S T G G K A P R K Q”, the “CaBdf1 BD2 Normalized (0 to 100%) WT” value with CaBdf1 BD2 is on record as 0.444%. Moreover, the “CaBdf1 BD2 Raw data WT” value with CaBdf1 BD2 (first of two raw-data columns) is recorded as 0.01098. In the test with CaBdf1 BD1, the “CaBdf1 BD1 Normalized (0 to 100%) WT” value is on record as 0.363% and the “CaBdf1 BD1 Raw data WT” value is listed as 0.00481. Further, the “CaBdf1 BD1 Raw data WT” value with CaBdf1 BD1 (first of two raw-data columns) amounted to 0.004276. For the same sequence, in the test with CaBdf1 BD2 Y425F, the “CaBdf1 BD2 Normalized (0 to 100%) YF mutant” value came out at 0.293% and the “CaBdf1 BD2 Raw data YF mutant” value came out at 0.002427. For the same sequence, in the test with CaBdf1 BD1 Y248F, the “CaBdf1 BD1 Normalized (0 to 100%) YF mutant” value stood at 0.658% and the “CaBdf1 BD1 Raw data YF mutant” value was 0.004801. Moreover, the “CaBdf1 BD1 Raw data YF mutant” value with CaBdf1 BD1 Y248F (first of two raw-data columns) is 0.006516.
